Where no end group is shown, it is not given here.

For assay [1], the target named is T1, PSMA Fab (biotinylated (site not stated)).
T1 construct: The panning ELISA names only 'biotinylated PSMA Fab' captured on neutravidin coated plates; also called Anti-PSMA Fab; 006 PSMA Fab
The assay is described as follows: clonal phage ELISA; biotinylated PSMA Fab on neutravidin plate, blocking buffer alone; anti-M13 HRP detection. (In general: In an ELISA, binding on a coated surface is turned into a signal by an enzyme label.)

The target of assay [2] is T1, PSMA Fab. Put plainly: clonal phage ELISA; biotinylated PSMA Fab on neutravidin plate, wells pre-incubated with PSMA antigen as competitor; anti-M13 HRP detection.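 Also: crude clonal phage supernatants added to antigen-treated wells without a wash, incubated briefly, then bound phage read out via horse radish–conjugated anti-M13 antibody.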
Procedure: (§1) Clonal phage were harvested as crude supernatants and screened via standard ELISAs. […] Prior to the addition of clonal phage. wells were incubated with blocking buffer and PSMA antigen or blocking buffer alone. Without washing or aspirating, clonal phage supernatants were then added to the wells and incubated for a short time. Wells were then washed followed by detection of bound phage using a horse radish conjugated anti-M13 antibody.
Assay [3] deals with T2, PSMA Fab (biotinylated (site not stated)).
T2 construct: Biotinylated PSMA Fab captured on neutravidin coated plates in the phage ELISA; also called Anti-PSMA Fab; 006 PSMA Fab
The assay is described as follows: clonal phage ELISA on plate-bound PSMA Fab pre-incubated with PSMA antigen as competitor.

Assay [4] concerns the target T2, PSMA Fab. Put plainly: clonal phage ELISA on biotinylated PSMA Fab captured on neutravidin; anti-M13 HRP detection.
Procedure: as §1
Assay [5] concerns the target T3, PSMA Fab.
T3 construct: In the phage ELISA the PSMA Fab was biotinylated and captured on neutravidin coated plates; also called Anti-PSMA Fab; 006 PSMA Fab
Put plainly: clonal phage ELISA on biotinylated PSMA Fab captured on neutravidin plates, anti-M13 HRP detection.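 Also: crude clonal phage supernatants tested, before phage were added, wells were pretreated with PSMA antigen in blocking buffer or with blocking buffer only.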
Procedure: as §1

Assay [6] addresses T4, PSMA Fab (biotinylated (site not stated)).
T4 construct: Biotinylated PSMA Fab captured on neutravidin coated plates for the clonal phage ELISA; also called Anti-PSMA Fab; 006 PSMA Fab
Put plainly: clonal phage supernatant ELISA on biotinylated PSMA Fab captured on neutravidin; anti-M13-HRP detection.

Assay [7] addresses T4, PSMA Fab. Put plainly: clonal phage supernatant ELISA on PSMA Fab pre-incubated with PSMA antigen as competitor; anti-M13-HRP detection.
Procedure: as §1

B1: Phage-3226 (peptide)
peptide: LTVLCEPAWMCVGF
notes: also called Peptide-180 library clone
Regarding B1, in the assay with PSMA Fab [1], the “Phage binding ELISA signal, Anti-PSMA Fab” value came out at 1.95. Besides, the “Phage binding ELISA signal, Anti-PSMA Fab with PSMA antigen” value in the assay with PSMA Fab [2] was found to be 0.0827.

B2: Phage-3235 (peptide)
peptide: VERLCMPEWMCLGF
notes: as for B1
With B2, the “Phage binding ELISA signal, Anti-PSMA Fab” value with PSMA Fab [1] amounted to 1.95. Also, the “Phage binding ELISA signal, Anti-PSMA Fab with PSMA antigen” value with PSMA Fab [2] turned out to be 0.126.

B3: Phage-3237 (peptide)
peptide: EYHKCIPEWMCAGF
modifications: cysteine pairing not given here; also: fused to phage pIII, fusion site not given here
notes: as for B1
For the molecule B3, in the assay with PSMA Fab [1], the “Phage binding ELISA signal, Anti-PSMA Fab” value was 1.94. Besides, in the assay with PSMA Fab [2], the “Phage binding ELISA signal, Anti-PSMA Fab with PSMA antigen” value stood at 0.0924.

B4: Phage-3213 (peptide)
peptide: AIAMCVPSWMCTGL
modifications: cysteine pairing not given here; also: fused to phage pIII, sequence not given here
notes: not shown: pIII filament protein of the bacteriophage
As to B4, the “phage binding ELISA signal” value worked out at 0.0711 with PSMA Fab [3] and 1.97 with PSMA Fab [4].

B5: Phage-3215 (peptide)
peptide: LDLRCQPPWMCMGF
notes: as for B4
For the molecule B5, the “phage binding ELISA signal” value in the assay with PSMA Fab [3] was found to be 0.0778; with PSMA Fab [4], 1.97.

B6: Phage-3232 (peptide)
peptide: IVKACKPEWMCVGF
notes: as for B1
On to B6, for which, in the assay with PSMA Fab [1], the “Phage binding ELISA signal, Anti-PSMA Fab” value was 1.95. In addition, in the assay with PSMA Fab [2], the “Phage binding ELISA signal, Anti-PSMA Fab with PSMA antigen” value was determined as 0.0754.

B7: Phage-3233 (peptide)
peptide: PYAMCEPAWMCSGF
modifications: cysteine pairing not given here; also: fused to phage pIII, fusion site not given here
notes: as for B1
Regarding B7, in the assay with PSMA Fab [1], the “Phage binding ELISA signal, Anti-PSMA Fab” value worked out at 1.95. For the same molecule, in the assay with PSMA Fab [2], the “Phage binding ELISA signal, Anti-PSMA Fab with PSMA antigen” value came out at 0.0697.

B8: Phage-3219 (peptide)
peptide: DQVMCKPIWMCEGF
notes: as for B4
Turning to B8, the “phage binding ELISA signal” value with PSMA Fab [3] was found to be 0.0928; in the assay with PSMA Fab [4], 1.96.

B9: Phage-3295 (peptide)
peptide: TEVMCRPLWMCAGF
As to B9, the “Phage binding ELISA signal, Anti-PSMA Fab” value with PSMA Fab [5] was 1.89.

B10: Phage-3225 (peptide)
peptide: GEVLCRPIWMCNGF
notes: as for B4
For the molecule B10, the “phage binding ELISA signal” value came to 0.123 with PSMA Fab [3] and 1.95 in the assay with PSMA Fab [4].

B11: Phage-3114 (peptide)
peptide: VPRYCVPQWMCAAF
notes: Clonal phage of the peptide-180 library; not shown: pIII filament protein of the bacteriophage, fused to the peptide
Regarding B11, in the assay with PSMA Fab [6], the “Phage binding ELISA signal, Anti-PSMA Fab” value came to 2.08. Moreover, the “Phage binding ELISA signal, Anti-PSMA Fab with PSMA antigen” value with PSMA Fab [7] came to 0.0864.

B12: Phage-3220 (peptide)
peptide: IPRACIPAWMCQGF
notes: as for B4
On to B12, for which the “phage binding ELISA signal” value in the assay with PSMA Fab [3] is 0.101; in the assay with PSMA Fab [4] it was 1.96.

B13: Phage-3113 (peptide)
peptide: NGVVCQPPWMCFGF
notes: as for B11
In the case of B13, the “Phage binding ELISA signal, Anti-PSMA Fab” value with PSMA Fab [6] was found to be 2.08. The “Phage binding ELISA signal, Anti-PSMA Fab with PSMA antigen” value in the assay with PSMA Fab [7] came to 0.0794.

B14: Phage-3223 (peptide)
peptide: PQWMCKPEWMCNGF
notes: as for B4
For B14, the “phage binding ELISA signal” value with PSMA Fab [3] worked out at 0.0807; with PSMA Fab [4], 1.96.

B15: Phage-3229 (peptide)
peptide: ITPLCSPAWMCQGL
notes: as for B1
As to B15, the “Phage binding ELISA signal, Anti-PSMA Fab” value with PSMA Fab [1] was found to be 1.95. The “Phage binding ELISA signal, Anti-PSMA Fab with PSMA antigen” value in the assay with PSMA Fab [2] was 0.055.

B16: Phage-3228 (peptide)
peptide: VGHVCLPPWMCTGF
notes: as for B1
Take B16: the “Phage binding ELISA signal, Anti-PSMA Fab” value with PSMA Fab [1] turned out to be 1.95. In addition, the “Phage binding ELISA signal, Anti-PSMA Fab with PSMA antigen” value with PSMA Fab [2] turned out to be 0.0697.

B17: Phage-3222 (peptide)
peptide: MELKCVPKWMCAGF
modifications: cysteine pairing not given here; also: fused to phage pIII, sequence not given here
notes: as for B4
For B17, the “phage binding ELISA signal” value with PSMA Fab [3] came out at 0.0684; with PSMA Fab [4], 1.96.

B18: Phage-3227 (peptide)
peptide: PIVKCSPAWMCSGF
notes: as for B1
With B18, in the assay with PSMA Fab [1], the “Phage binding ELISA signal, Anti-PSMA Fab” value turned out to be 1.95. Besides, the “Phage binding ELISA signal, Anti-PSMA Fab with PSMA antigen” value with PSMA Fab [2] is 0.0757.

B19: Phage-3231 (peptide)
peptide: VTAYCVPPWMCAVF
notes: as for B1
As for B19, the “Phage binding ELISA signal, Anti-PSMA Fab” value in the assay with PSMA Fab [1] came out at 1.95. Also, the “Phage binding ELISA signal, Anti-PSMA Fab with PSMA antigen” value with PSMA Fab [2] amounted to 0.102.

B20: Phage-3224 (peptide)
peptide: ITALCKPAWMCDGF
notes: as for B4
Regarding B20, the “phage binding ELISA signal” value in the assay with PSMA Fab [3] amounted to 0.109; in the assay with PSMA Fab [4], 1.96.

B21: Phage-3216 (peptide)
peptide: VEPLCVPSWMCQGI
notes: as for B4
With B21, the “phage binding ELISA signal” value with PSMA Fab [3] was found to be 0.076; with PSMA Fab [4], 1.97.

B22: Phage-3236 (peptide)
peptide: PLPMCVPAWMCAGF
modifications: cysteine pairing not given here; also: fused to phage pIII, fusion site not given here
notes: as for B1
As for B22, the “Phage binding ELISA signal, Anti-PSMA Fab” value with PSMA Fab [1] was 1.95. The “Phage binding ELISA signal, Anti-PSMA Fab with PSMA antigen” value with PSMA Fab [2] was 0.133.

B23: Phage-3218 (peptide)
peptide: DVHLCKPSWMCAGF
modifications: cysteine pairing not given here; also: fused to phage pIII, sequence not given here
notes: as for B4
B23: the entries for the “phage binding ELISA signal” value with PSMA Fab [3] and with PSMA Fab [4] were 0.0706 and 1.96, respectively.

B24: Phage-3221 (peptide)
peptide: LQILCKPQWMCEGL
notes: as for B4
In the case of B24, the results for the “phage binding ELISA signal” value with PSMA Fab [3] and in the assay with PSMA Fab [4] were 0.0882 and 1.96, respectively.

B25: Phage-3296 (peptide)
peptide: VVIQCQPAWMCDGF
For B25, in the assay with PSMA Fab [5], the “Phage binding ELISA signal, Anti-PSMA Fab” value turned out to be 1.88.

B26: Phage-3217 (peptide)
peptide: IELFCKPAWMCDGF
notes: as for B4
On to B26, for which the figures for the “phage binding ELISA signal” value in the assay with PSMA Fab [3] and with PSMA Fab [4] were 0.111 and 1.97, respectively.

B27: Phage-3238 (peptide)
peptide: WEHRCTPEWMCTGF
notes: as for B1
As for B27, the “Phage binding ELISA signal, Anti-PSMA Fab” value in the assay with PSMA Fab [1] is 1.94. In addition, the “Phage binding ELISA signal, Anti-PSMA Fab with PSMA antigen” value with PSMA Fab [2] was determined as 0.0937.

B28: Phage-3230 (peptide)
peptide: LGIYCVPEWMCQGF
notes: as for B1
As for B28, the “Phage binding ELISA signal, Anti-PSMA Fab” value with PSMA Fab [1] is 1.95. Also, the “Phage binding ELISA signal, Anti-PSMA Fab with PSMA antigen” value with PSMA Fab [2] is 0.0818.

B29: Phage-3214 (peptide)
peptide: MAPYCVPSWMCWGF
notes: as for B4
On to B29, for which the figures for the “phage binding ELISA signal” value with PSMA Fab [3] and with PSMA Fab [4] were 0.145 and 1.97, respectively.

B30: Phage-3297 (peptide)
peptide: VAVMCRPAWMCYGF
For B30, the “Phage binding ELISA signal, Anti-PSMA Fab” value with PSMA Fab [5] came to 1.88.

B31: Phage-3234 (peptide)
peptide: DGIRCVPNWMCVGF
notes: as for B1
Turning to B31, the “Phage binding ELISA signal, Anti-PSMA Fab” value in the assay with PSMA Fab [1] was determined as 1.95. Further, the “Phage binding ELISA signal, Anti-PSMA Fab with PSMA antigen” value with PSMA Fab [2] stood at 0.0969.
